These are literature values, as cited in paper PMC11727785.

Like-named read-outs stand apart in the source and are kept apart here.

In series [1] the target is IL-18 receptor alpha chain (Homo sapiens) (UniProt Q13478).
Series [2] addresses IL-18 receptor complex (Homo sapiens) (UniProt Q13478).
Series [3] deals with IL-18 (Homo sapiens) (UniProt Q14116).
The target is the same in series [4]. Briefly: SPR.

IL-18 (Homo sapiens), sequence (Q14116 37-193): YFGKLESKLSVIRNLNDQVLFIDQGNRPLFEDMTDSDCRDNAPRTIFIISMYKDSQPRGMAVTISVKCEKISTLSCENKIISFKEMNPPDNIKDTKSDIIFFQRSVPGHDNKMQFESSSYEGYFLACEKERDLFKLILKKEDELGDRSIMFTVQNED
IL-18, sequence (Q14116 37-193): as above
IL-18BP, sequence (O95998 31-194): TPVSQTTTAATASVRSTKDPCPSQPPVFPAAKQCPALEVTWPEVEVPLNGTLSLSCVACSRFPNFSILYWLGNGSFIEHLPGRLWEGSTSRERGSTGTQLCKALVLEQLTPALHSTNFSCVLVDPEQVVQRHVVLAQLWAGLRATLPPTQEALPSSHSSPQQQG
IL-18 receptor complex (Homo sapiens), sequence (Q13478 19-541, chain 1 of 2): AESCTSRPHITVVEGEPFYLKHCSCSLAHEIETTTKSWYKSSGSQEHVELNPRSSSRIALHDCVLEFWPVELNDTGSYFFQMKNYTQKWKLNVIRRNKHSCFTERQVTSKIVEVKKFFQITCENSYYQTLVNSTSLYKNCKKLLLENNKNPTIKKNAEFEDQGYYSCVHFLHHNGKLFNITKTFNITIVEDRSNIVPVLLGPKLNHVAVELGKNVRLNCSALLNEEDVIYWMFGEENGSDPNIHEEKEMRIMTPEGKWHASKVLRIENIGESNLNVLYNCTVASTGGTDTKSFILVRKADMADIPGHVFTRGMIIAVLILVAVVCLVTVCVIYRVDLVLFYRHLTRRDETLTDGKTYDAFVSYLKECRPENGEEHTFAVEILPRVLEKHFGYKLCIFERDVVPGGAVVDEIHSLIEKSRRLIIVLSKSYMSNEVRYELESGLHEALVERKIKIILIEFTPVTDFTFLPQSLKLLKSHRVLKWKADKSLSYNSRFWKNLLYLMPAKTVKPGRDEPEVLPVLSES
IL-18 receptor complex (Homo sapiens), sequence (O95256 20-599, chain 2 of 2, further chain): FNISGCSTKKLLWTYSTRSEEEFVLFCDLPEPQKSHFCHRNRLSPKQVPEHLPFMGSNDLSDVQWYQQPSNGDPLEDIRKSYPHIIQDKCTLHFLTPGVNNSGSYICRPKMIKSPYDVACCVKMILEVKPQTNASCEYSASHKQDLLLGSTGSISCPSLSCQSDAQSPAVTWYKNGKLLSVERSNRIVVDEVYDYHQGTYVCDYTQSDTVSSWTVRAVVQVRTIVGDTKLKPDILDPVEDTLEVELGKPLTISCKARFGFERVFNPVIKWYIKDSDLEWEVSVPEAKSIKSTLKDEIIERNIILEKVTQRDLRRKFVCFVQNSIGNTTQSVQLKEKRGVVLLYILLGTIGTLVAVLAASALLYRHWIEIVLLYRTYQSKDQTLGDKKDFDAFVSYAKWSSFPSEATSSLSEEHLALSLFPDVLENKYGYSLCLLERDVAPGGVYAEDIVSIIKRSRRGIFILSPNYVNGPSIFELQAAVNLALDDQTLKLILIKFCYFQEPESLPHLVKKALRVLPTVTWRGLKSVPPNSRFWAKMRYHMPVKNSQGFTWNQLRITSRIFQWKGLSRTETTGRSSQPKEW
IL-18 receptor alpha chain (Homo sapiens), sequence (Q13478 19-541): as the sequence (Q13478 19-541, chain 1 of 2) above

As for IL-18 (from UniProt Q14116), the Kd in series [1] is 18.5 nM; in series [2] it was 0.4 nM.
As for IL-18BP (from UniProt O95998), the Kd with IL-18 (Homo sapiens) [3] was 0.05 nM; in the series with IL-18 (Homo sapiens) [4], 0.4 nM.
